This is an account of results in patent US20210324099A1 (Chugai, published 2021).

Numbering of substitutions follows the chain as printed.

Sequences and labels used below:
T1: hFcgRIIaH (human, UniProt P12318 34-217)
T1 construct: extracellular domain; also called human FcγRIIa type H (H131)
T1 sequence (looked up): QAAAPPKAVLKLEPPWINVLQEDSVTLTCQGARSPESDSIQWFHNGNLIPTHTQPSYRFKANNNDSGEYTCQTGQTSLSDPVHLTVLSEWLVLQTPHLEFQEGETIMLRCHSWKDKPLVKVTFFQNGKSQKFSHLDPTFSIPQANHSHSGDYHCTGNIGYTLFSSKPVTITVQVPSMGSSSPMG

T2: hFcgRIIaR (human, UniProt P12318 34-217)
T2 construct: extracellular domain; also called human FcγRIIa type R (R131)
T2 sequence (looked up): T1 sequence (looked up) with H134R

T3: hFcgRIIb (human, UniProt P31994 43-217)
T3 construct: extracellular domain; also called human FcγRIIb
T3 sequence (looked up): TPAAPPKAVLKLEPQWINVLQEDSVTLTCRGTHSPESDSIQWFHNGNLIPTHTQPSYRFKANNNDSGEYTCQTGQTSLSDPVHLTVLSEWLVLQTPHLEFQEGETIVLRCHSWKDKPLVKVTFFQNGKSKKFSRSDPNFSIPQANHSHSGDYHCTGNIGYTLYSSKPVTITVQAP

B1: A375-P587/B167-Lamlib (antibody, human IgG1, lambda)
heavy: EVQLVESGGGLVKPGGSLRLSCAASGFTFSTFTMNWVRQAPGKGLEWVSSISSKSTYIEYADSFKVRFTISRDNAKNSLYLQMNSLRAEDTAVYYCARYGAKNFLNWVFDYWGQGTLVTVSSASTKGPSVFPLAPSSKSTSGGTAALGCLVKDYFPEPVTVSWNSGALTSGVHTFPAVLQSSGLYSLSSVVTVPSSSLGTQTYICNVNHKPSNTKVDKKVEPKSCDKTHTCPPCPAPDLLGGDSVFLFPPKPKDTLMISRTPEVTCVVIDVAEEDGEVKFNWYVDGVEVHNAKTKPREEQYNSTYRVVSVLTVLHQDWLNGKEYKCKVSNKALPAPIEKTISKAKGQPREPQVYTLPPSRDELTKNQVSLTCLVKGFYPSDIAVEWESNGQPENNYKTTPPVLDSDGSFFLYSKLTVDKSRWQQGNVFSCSVMHEALHNHYTQKSLSLSP
light: QSALTQPPSASGSPGQTVTISCTGTRYDVGYYEYVSWYQQHPGKAPKLMIYETSKRLSGVPDRFSGSKSGNTASLTVSGLQAEDEADYYCSSYRYEHQVSFGGGTKLTVLGQPKAAPSVTLFPPSSEELQANKATLVCLISDFYPGAVTVAWKADSSPVKAGVETTTPSKQSNNKYAASSYLSLTPEQWKSHRSYSCQVTHEGSTVEKTVAPTECS
notes: copies: 2 + 2
B2: A375-SCF025a/B167-Lamlib (antibody, human IgG1, lambda)
heavy: EVQLVESGGGLVKPGGSLRLSCAASGFTFSTFTMNWVRQAPGKGLEWVSSISSKSTYIEYADSFKVRFTISRDNAKNSLYLQMNSLRAEDTAVYYCARYGAKNFLNWVFDYWGQGTLVTVSSASTKGPSVFPLAPSSKSTSGGTAALGCLVKDYFPEPVTVSWNSGALTSGVHTFPAVLQSSGLYSLSSVVTVPSSSLGTQTYICNVNHKPSNTKVDKRVEPKSCDKTHTCPPCPAPELWNGPSVFLFPPKPKDTLMISRTPEVTCVVVDVSDEDPEVKFNWYVDGVEVHNAKTKPREELYNSTYRVVSVLTVLHQDWLNGKEYKCKVSNTALPKPIEKTISKAKGQRREPQVYTLPPSREEMTKNQVSLTCLVKGFYPSDIAVEWESNGQPENNYKTTPPVLDSDGSFFLYSKLTVKKSRWQQGNVFSCSVMHEALHNHYTQKSLSLSP
light: B1 light
B3: A375-SCF030/B167-Lamlib (antibody, human IgG1, lambda)
heavy: B2 heavy with R219K, Q316R, K418D
light: B1 light
B4: A375-SCF025/B167-Lamlib (antibody, human IgG1, lambda)
heavy: B2 heavy with R219K
light: B1 light
B5: A375-SCF027/B167-Lamlib (antibody, human IgG1, lambda)
heavy: EVQLVESGGGLVKPGGSLRLSCAASGFTFSTFTMNWVRQAPGKGLEWVSSISSKSTYIEYADSFKVRFTISRDNAKNSLYLQMNSLRAEDTAVYYCARYGAKNFLNWVFDYWGQGTLVTVSSASTKGPSVFPLAPSSKSTSGGTAALGCLVKDYFPEPVTVSWNSGALTSGVHTFPAVLQSSGLYSLSSVVTVPSSSLGTQTYICNVNHKPSNTKVDKKVEPKSCDKTHTCPPCPAPEYLGGDSVFLFPPKPKDVLMISRTPEVTCVVIDVSHEDPEVKFNWYVDGVEVHNAKTKPREEQYNSTYRVVSVLPVLHQDWLNGKEYKCKVSNKALPKPIEKTISKAKGQRREPQVYTLPPSREEMTKNQVSLTCLVKGFYPSDIAVEWESNGQPENNYKTTPPVLDSDGSFFLYSKLTVKKSRWQQGNVFSCSVMHEALHNHYTQKSLSLSP
light: B1 light
notes: also called A375-SCF027/B167-LamLab
B6: A375-SCF028/B167-Lamlib (antibody, human IgG1, lambda)
heavy: B5 heavy with G242D, I269V
light: B1 light
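Throughout, for binding per 1RU of antibody: biacore SPR with antibody captured on an anti-human Fab lambda chip, human FcγR injected at 1000 nM (FcγRIa at 8 nM) in pH 7.4 phosphate buffer.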

Chain of human FcRn (P55899 24-290 limits assumed, chain 1 of 2): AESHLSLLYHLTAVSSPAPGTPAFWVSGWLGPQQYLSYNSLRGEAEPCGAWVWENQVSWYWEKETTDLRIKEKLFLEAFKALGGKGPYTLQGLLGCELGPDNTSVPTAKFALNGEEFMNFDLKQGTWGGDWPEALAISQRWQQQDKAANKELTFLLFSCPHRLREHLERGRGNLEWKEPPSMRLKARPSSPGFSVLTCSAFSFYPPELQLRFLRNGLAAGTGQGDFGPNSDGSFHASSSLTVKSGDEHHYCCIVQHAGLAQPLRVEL
Chain of human FcRn (P61769 21-119 limits assumed, chain 2 of 2): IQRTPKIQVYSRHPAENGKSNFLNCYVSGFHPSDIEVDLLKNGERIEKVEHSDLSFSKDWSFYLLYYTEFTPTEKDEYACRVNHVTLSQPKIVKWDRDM
T4 sequence (P12314 16-292): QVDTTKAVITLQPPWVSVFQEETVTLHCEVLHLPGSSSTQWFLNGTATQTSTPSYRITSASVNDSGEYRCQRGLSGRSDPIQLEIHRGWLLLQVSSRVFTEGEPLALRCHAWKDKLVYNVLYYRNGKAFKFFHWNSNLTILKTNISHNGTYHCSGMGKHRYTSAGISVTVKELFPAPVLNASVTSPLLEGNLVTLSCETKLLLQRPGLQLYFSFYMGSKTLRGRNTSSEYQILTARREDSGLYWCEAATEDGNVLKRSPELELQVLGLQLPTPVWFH

One assay concerns the target T4, hFcgRIa (human, UniProt P12314 16-292).
T4 construct: extracellular domain; also called human FcγRIa; FcγRI
Description: SPR 25C; relative to A375-G1T3/B167-Lamlib.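 Note: SPR with antibody captured on an anti-human Fab-lambda chip, human FcγR analyte at 8 nM for FcγRIa or 1000 nM for the others, pH 7.4, FcγR RU per captured antibody unit.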
Description: (§1) Biacore T200 (GE Healthcare) was used to evaluate the binding activity to the respective human Fcγ receptor (hereafter referred to as FcγR). Measurement was performed at 25° C. using 50 mM phosphate, 150 mM NaCl, 0.05 w/v %-P20, pH 7.4 as buffer. About 1000 RU of antibody was captured using a sensor chip immobilized with CaptureSelect™ Human Fab-lambda Kinetics Biotin Conjugate (Thermo Fisher Scientific) as a molecule for ligand capturing. Human FcγR was diluted to 8 nM for FcγRIa and 1000 nM for other FcγR in the measurement buffer, and it was interacted to the captured antibody. The binding activity of each antibody to FcγR was assessed by calculating the binding amount of FcγR (RU) per unit amount of antibody using Biacore T200 Evaluation Software 2.0.
Regarding B1, the relative binding amount turned out to be 1.18.

Molecule B2 returned a relative binding amount of 0.03.

On to B3, for which the relative binding amount was 0.02.

Turning to B4, the relative binding amount came to 0.03.

Take B5: the relative binding amount came to 0.05.

Take B6: the relative binding amount stood at 0.03.

A further assay deals with T1, hFcgRIIaH. Put plainly: SPR 25C; relative to A375-G1T3/B167-Lamlib.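 Note: SPR with antibody captured on an anti-human Fab-lambda chip, human FcγR analyte at 8 nM for FcγRIa or 1000 nM for the others, pH 7.4, FcγR RU per captured antibody unit.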
Description: as §1
B1: the relative binding amount was determined as 0.05.

In turn, B2 gave a relative binding amount of 0.91.

The molecule B3 displayed a relative binding amount of 0.94.

The molecule B4 displayed a relative binding amount of 0.91.

In turn, B5 returned a relative binding amount of 0.06.

Take B6: the relative binding amount stood at 0.18.

The target in the next assay is T5, hFcgRIIIaF (human, UniProt P08637 17-208).
T5 construct: extracellular domain; also called human FcγRIIIa allotype F158
T5 sequence (P08637 17-208): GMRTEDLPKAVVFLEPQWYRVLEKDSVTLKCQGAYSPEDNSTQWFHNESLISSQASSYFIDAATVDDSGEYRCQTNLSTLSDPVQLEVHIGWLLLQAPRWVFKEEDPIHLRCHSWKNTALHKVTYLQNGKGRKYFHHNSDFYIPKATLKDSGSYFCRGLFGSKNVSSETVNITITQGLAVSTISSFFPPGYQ
Description: SPR 25C; relative to A375-G1T3/B167-Lamlib.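 Note: SPR with antibody captured on an anti-human Fab-lambda chip, human FcγR analyte at 8 nM for FcγRIa or 1000 nM for the others, pH 7.4, FcγR RU per captured antibody unit.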
Description: as §1
Take B1: the relative binding amount is 0.

Molecule B2 gave a relative binding amount of 0.04.

For B3, the relative binding amount is 0.08.

B4: the relative binding amount amounted to 0.06.

B5: the relative binding amount was -0.02.

For the molecule B6, the relative binding amount is -0.04.

A further assay deals with T2, hFcgRIIaR. Description: SPR 25C; relative to A375-G1T3/B167-Lamlib.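 Note: SPR with antibody captured on an anti-human Fab-lambda chip, human FcγR analyte at 8 nM for FcγRIa or 1000 nM for the others, pH 7.4, FcγR RU per captured antibody unit.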
Description: as §1
Take B1: the relative binding amount was 0.8.

B2 showed a relative binding amount of 1.12.

As to B3, the relative binding amount was 1.15.

For B4, the relative binding amount is 1.12.

For B5, the relative binding amount turned out to be 0.12.

Turning to B6, the relative binding amount came to 0.64.

For a further assay, the target named is T6, hFcgRIIIaV (human, UniProt P08637 17-208).
T6 construct: extracellular domain; also called human FcγRIIIa allotype V158
T6 sequence (P08637 17-208 F176V): as the sequence (P08637 17-208) above, with F160V counted along it
Put plainly: SPR 25C; relative to A375-G1T3/B167-Lamlib.
Description: as §1
B1 gave a relative binding amount of 0.

Turning to B2, the relative binding amount came out at 0.02.

In turn, B3 yielded a relative binding amount of 0.03.

B4 registered a relative binding amount of 0.02.

For the molecule B5, the relative binding amount is -0.01.

As to B6, the relative binding amount is -0.01.

In another assay the target is T3, hFcgRIIb. Description: SPR 25C; relative to A375-G1T3/B167-Lamlib.
Description: as §1
As for B1, the relative binding amount is 13.

Molecule B2 came in with a relative binding amount of 4.67.

In turn, B3 returned a relative binding amount of 4.85.

For B4, the relative binding amount is 4.67.

B5 registered a relative binding amount of 6.99.

B6 returned a relative binding amount of 9.08.

The next assay has as its target human FcRn (human, UniProt P55899 24-290; P61769 21-119, limits assumed). Description: SPR 25C pH 6.0, steady state.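 Note: antibody captured on chip via anti-human Fab-lambda ligand, human FcRn injected as analyte in 50 mM phosphate buffer with 150 mM NaCl and P20.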
Description: Biacore T200 (GE Healthcare) was used to assess the binding activity to human FcRn. Measurement was performed at 25° C. using 50 mM phosphate, 150 mM NaCl, 0.05 w/v %-P20, pH 6.0 as buffer. […] About 400 RU of antibody was captured using a sensor chip immobilized with CaptureSelect™ Human Fab-lambda Kinetics Biotin Conjugate (Thermo Fisher Scientific) as a molecule for ligand capturing, followed by the binding of human FcRn diluted in measuring buffer. The activity of the respective antibodies to bind FcRn was assessed by calculating KD (mol/L) by the steady-state model using Biacore T200 Evaluation Software 2.0.
One may read the Kd as a measure of binding affinity in units of concentration. High values mean lower affinity, low ones higher affinity. For the molecule B1, the Kd was 1.7 µM.

Take B2: binding was characterised by a dissociation constant (Kd) of 1.13 µM.

Turning to B3, the Kd was determined as 0.863 µM.

B4: the dissociation constant Kd worked out at 1.1 µM.

With B5, binding was put at a Kd of 1.33 µM.

For the molecule B6, the Kd was 1.27 µM.

The next assay deals with T4, hFcgRIa. Description: SPR 25C.
As for B1, the “binding per 1RU of antibody” value worked out at 0.0962 RU.

As for B2, the “binding per 1RU of antibody” value turned out to be 0.0021 RU.

B3: the “binding per 1RU of antibody” value worked out at 0.002 RU.

As for B4, the “binding per 1RU of antibody” value was determined as 0.0022 RU.

As to B5, the “binding per 1RU of antibody” value turned out to be 0.0044 RU.

Take B6: the “binding per 1RU of antibody” value was found to be 0.0027 RU.

The next assay addresses T1, hFcgRIIaH. Description: SPR 25C.
For B1, the “binding per 1RU of antibody” value turned out to be 0.0029 RU.

Regarding B2, the “binding per 1RU of antibody” value amounted to 0.0514 RU.

As for B3, the “binding per 1RU of antibody” value amounted to 0.0533 RU.

For B4, the “binding per 1RU of antibody” value was found to be 0.0514 RU.

With B5, the “binding per 1RU of antibody” value was 0.0031 RU.

With B6, the “binding per 1RU of antibody” value was determined as 0.0101 RU.

The target in the next assay is T5, hFcgRIIIaF. Description: SPR 25C.
With B1, the “binding per 1RU of antibody” value was determined as 0.0001 RU.

Regarding B2, the “binding per 1RU of antibody” value stood at 0.0009 RU.

As to B3, the “binding per 1RU of antibody” value was 0.0017 RU.

B4: the “binding per 1RU of antibody” value was 0.0012 RU.

For B5, the “binding per 1RU of antibody” value was -0.0005 RU.

In the case of B6, the “binding per 1RU of antibody” value was -0.0009 RU.

For another assay, the target named is T2, hFcgRIIaR. Put plainly: SPR 25C.
As to B1, the “binding per 1RU of antibody” value turned out to be 0.0371 RU.

Regarding B2, the “binding per 1RU of antibody” value turned out to be 0.0518 RU.

On to B3, for which the “binding per 1RU of antibody” value came out at 0.0532 RU.

In the case of B4, the “binding per 1RU of antibody” value came to 0.0519 RU.

In the case of B5, the “binding per 1RU of antibody” value stood at 0.0058 RU.

For the molecule B6, the “binding per 1RU of antibody” value amounted to 0.0299 RU.

The next assay has as its target T6, hFcgRIIIaV. Put plainly: SPR 25C.
B1: the “binding per 1RU of antibody” value is 0.0001 RU.

In the case of B2, the “binding per 1RU of antibody” value was 0.0016 RU.

Take B3: the “binding per 1RU of antibody” value was 0.002 RU.

Take B4: the “binding per 1RU of antibody” value was determined as 0.0014 RU.

As to B5, the “binding per 1RU of antibody” value was -0.0006 RU.

On to B6, for which the “binding per 1RU of antibody” value is -0.001 RU.

The target in another assay is T3, hFcgRIIb. Description: SPR 25C.
Consider B1, for which the “binding per 1RU of antibody” value was found to be 0.143 RU.

For B2, the “binding per 1RU of antibody” value stood at 0.0511 RU.

For B3, the “binding per 1RU of antibody” value is 0.0532 RU.

With B4, the “binding per 1RU of antibody” value amounted to 0.0512 RU.

With B5, the “binding per 1RU of antibody” value was 0.0766 RU.

Consider B6, for which the “binding per 1RU of antibody” value was determined as 0.0995 RU.
